In IntAct's records for PubMed 20534433:

B1: Protein RED1 (Saccharomyces cerevisiae), P14291 (parent)
chain: MEGLKKKIFGVCLKNDLAQTRNETKGIHYGLMTLETSKQLQEFLHLLVIKREVIQNFELLFHIINVAVKITDSNLPSDDIWHFILKLRFSSEINIDEDSKVLNYLLETGIAMENPVSWKCLAVISSILSSVPQSKKIITNLIETEHAKKIGQLFDNIQDLQQGNFLVEILSNCFKKSASNSKKVEKIPQLWQSRSKNKFFFENEFYPFSSKNGSLQTCQFLCNNFMSTLSFTGILRQVSYSGSETLKNLRIFKKKDDENSYFIQCIYNKIYLWLDEKAPLEFERKKIRITKNLKNKIQIKLRQPFHECVRTTADKTALLFNKTKGFQLEFEDEKLGETFFHNVNNIPKISEVQNFLVLDYIEEEPENEGEEEEQIGRADEQKEDEEEESLDELSTPMVYPIKSSIPHNHNEKVQLVTPDRSVSIRSDEWDLKSNTEDEEGNVLADLKISSTKETKRQTDYVHIDSEDQSPVVSAQMRKMRRESTKTLEILRQEFKDKDVQNKEDQSEQIQNPFVNTSSLVVGKSCLVNPKEKPNIDQTVVGITELKSNSSIKKRDINILDTIFGQPPSKKQKQFHKKEKKKQQKKLTNFKPIIDVPSQDKRNLRSNAPTKPKSIKVSKLRTDKKVTGEKSSPETAAEKVDDQTVRSNDEQAMSRATKEKCFPDVNEGKEITKDDAKVSLESKKNNETFVDSSVVEKHTPPDKDCNNCNITDILESTTVIDLQSPHGLSAPGQNTFTNKLQEQIYSSINHFSNELVRKISIINQELNKKILKELSEKYQKLFSELQDNFQNDTNEMLKFMGEIKDMMNLPEDQLVHAIRTRKFDNNKR
B2: Protein RED1 (Saccharomyces cerevisiae), P14291 (parent)
chain: B1 chain
partner: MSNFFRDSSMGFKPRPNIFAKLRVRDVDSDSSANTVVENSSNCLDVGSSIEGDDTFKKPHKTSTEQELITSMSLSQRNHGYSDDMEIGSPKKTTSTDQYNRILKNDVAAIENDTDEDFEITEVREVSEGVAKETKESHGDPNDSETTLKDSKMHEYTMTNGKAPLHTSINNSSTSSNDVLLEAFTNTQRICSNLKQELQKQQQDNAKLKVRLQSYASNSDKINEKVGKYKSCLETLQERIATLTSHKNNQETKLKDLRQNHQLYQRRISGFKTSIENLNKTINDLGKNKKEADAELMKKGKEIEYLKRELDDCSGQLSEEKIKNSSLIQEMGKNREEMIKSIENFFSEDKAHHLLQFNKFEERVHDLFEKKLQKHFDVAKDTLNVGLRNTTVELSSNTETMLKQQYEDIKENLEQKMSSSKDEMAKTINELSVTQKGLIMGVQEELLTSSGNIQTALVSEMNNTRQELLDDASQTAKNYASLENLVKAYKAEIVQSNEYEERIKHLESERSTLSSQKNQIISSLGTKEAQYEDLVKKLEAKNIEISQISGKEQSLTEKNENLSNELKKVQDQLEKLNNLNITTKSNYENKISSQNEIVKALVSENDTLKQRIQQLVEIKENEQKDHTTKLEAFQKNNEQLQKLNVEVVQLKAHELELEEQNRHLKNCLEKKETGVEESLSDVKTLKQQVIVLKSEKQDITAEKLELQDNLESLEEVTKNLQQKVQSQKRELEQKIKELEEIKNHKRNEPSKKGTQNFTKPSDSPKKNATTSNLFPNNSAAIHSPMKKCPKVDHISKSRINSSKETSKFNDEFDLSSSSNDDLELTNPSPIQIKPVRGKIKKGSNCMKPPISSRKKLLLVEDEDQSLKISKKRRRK
B3: Protein RED1 (Saccharomyces cerevisiae), P14291 (parent)
chain: B1 chain
partner: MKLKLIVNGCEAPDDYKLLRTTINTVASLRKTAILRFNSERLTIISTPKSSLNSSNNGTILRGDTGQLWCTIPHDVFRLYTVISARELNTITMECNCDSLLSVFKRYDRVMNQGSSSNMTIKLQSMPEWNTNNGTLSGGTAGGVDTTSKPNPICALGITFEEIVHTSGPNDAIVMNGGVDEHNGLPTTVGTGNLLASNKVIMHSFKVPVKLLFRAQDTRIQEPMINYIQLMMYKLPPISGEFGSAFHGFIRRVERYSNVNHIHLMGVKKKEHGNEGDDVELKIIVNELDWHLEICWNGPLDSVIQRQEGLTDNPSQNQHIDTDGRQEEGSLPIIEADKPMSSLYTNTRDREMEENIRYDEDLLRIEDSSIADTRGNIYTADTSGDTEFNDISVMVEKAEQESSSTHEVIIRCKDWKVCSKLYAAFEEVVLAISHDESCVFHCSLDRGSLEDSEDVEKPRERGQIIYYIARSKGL
B4: Protein RED1 (Saccharomyces cerevisiae), P14291 (parent)
chain: B1 chain
partner: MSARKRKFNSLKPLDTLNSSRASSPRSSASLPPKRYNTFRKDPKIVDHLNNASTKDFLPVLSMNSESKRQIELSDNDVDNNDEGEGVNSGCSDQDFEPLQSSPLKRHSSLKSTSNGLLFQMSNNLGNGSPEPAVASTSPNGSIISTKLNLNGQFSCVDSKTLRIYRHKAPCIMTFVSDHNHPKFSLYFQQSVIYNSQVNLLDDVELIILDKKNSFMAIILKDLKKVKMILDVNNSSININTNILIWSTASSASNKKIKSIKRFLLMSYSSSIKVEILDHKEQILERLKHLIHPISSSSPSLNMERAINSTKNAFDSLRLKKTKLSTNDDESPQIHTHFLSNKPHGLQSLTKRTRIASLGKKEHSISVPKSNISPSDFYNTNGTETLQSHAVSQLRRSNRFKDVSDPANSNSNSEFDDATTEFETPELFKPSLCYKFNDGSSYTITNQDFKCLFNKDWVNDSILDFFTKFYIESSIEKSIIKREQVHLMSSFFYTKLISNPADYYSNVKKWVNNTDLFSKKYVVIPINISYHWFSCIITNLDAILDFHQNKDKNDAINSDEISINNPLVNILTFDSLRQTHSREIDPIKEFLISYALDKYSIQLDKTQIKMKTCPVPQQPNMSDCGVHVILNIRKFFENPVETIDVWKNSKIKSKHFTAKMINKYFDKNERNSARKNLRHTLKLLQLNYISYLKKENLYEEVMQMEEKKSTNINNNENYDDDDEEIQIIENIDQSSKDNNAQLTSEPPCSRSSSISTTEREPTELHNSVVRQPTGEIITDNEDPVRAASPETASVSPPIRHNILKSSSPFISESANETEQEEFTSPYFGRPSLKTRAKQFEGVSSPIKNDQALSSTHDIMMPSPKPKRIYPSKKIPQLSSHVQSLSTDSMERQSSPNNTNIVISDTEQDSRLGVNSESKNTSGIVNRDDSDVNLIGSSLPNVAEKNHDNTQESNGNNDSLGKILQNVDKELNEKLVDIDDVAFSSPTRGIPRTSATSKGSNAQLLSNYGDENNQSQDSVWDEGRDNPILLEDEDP
B5: Protein RED1 (Saccharomyces cerevisiae), P14291 (parent)
chain: B1 chain
partner: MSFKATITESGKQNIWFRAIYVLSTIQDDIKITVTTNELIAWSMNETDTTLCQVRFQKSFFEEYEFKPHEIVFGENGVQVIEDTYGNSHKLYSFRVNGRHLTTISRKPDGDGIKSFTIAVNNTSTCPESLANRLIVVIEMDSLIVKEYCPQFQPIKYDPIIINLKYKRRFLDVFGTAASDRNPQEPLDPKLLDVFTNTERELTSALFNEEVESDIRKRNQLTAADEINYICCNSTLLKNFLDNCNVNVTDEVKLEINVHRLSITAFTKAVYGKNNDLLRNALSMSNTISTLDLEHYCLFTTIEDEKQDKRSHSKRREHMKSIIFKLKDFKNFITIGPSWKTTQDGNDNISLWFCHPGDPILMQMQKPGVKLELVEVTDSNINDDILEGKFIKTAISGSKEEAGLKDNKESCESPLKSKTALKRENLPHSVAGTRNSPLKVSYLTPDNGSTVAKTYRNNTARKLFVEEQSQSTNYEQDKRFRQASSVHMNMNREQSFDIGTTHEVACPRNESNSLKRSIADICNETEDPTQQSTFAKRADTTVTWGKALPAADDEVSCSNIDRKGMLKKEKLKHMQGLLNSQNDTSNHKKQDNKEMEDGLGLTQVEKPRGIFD

Variants of: B1
Conditions: with smt3_yeast SMT3, Q12306
Sequence of smt3_yeast SMT3, Q12306 (Q12306 whole entry): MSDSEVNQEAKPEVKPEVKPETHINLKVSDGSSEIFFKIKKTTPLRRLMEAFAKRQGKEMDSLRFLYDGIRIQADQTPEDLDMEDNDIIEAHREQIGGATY

Row | effect of a mutation on the interaction | Variant
1 | disrupting interaction strength | K569R;K570R;K572R;K576R;K577R;K579R;K580R;K581R;K584R;K585R;K590R
2 | disrupting interaction strength | K569R;K570R;K572R;K576R;K577R

Variants of: B2
Conditions: with zip1_yeast ZIP1, P31111

Row | effect of a mutation on the interaction | Variant
3 | disrupting interaction strength | K569R;K570R;K572R;K576R;K577R;K579R;K580R;K581R;K584R;K585R;K590R

Variants of: B3
Conditions: with mec3_yeast MEC3, Q02574

Row | effect of a mutation on the interaction | Variant
4 | disrupting interaction strength | Q537A;V540A

Variants of: B4
Conditions: with ulp2_yeast ULP2, P40537

Row | effect of a mutation on the interaction | Variant
5 | disrupting interaction strength | K569R;K570R;K572R;K576R;K577R;K579R;K580R;K581R;K584R;K585R;K590R

Variants of: B5
Conditions: with ddc1_yeast DDC1, Q08949

Row | effect of a mutation on the interaction | Variant
6 | disrupting interaction strength | I743A
